Test results: patent publication US20050106661A1 (RIKEN, published 2005)

Tests used:
[1] = target: the molecule itself; experiment: formation of multimer (light scattering); self-association
Experimental: The fluorescent protein was equilibrated with 50 mM HEPES (pH 7.5) and 150 mM KCl.

[2] = target: the molecule itself; experiment: molecular weight by light scattering (34 kDa)

Row | Protein | binding result [1] | binding result [2]
1 | Azami-Green, fluorescent protein derived from Galaxea fascicularis (other, Expressed in E. coli with a C-terminal His-tag and purified on Ni-agarose; also called wild-type Azami-Green; fluorescent protein of the present invention derived from coral; not shown: C-terminal His-tag from the pET28 vector (NcoI/XhoI cloning)) MSVIKPEMKIKLCMRGTVNGHNFVIEGEGKGNPYEGTQILDLNVTEGAPLPFAYDILTTVFQYGNRAFTKYPADIQDYFKQTFPEGYHWERSMTYEDQGICTATSNISMRGDCFFYDIRFDGVNFPPNGPVMQKKTLKWEPSTEKMYVRDGVLKGDVNMALLLEGGGHYRCDFKTTYKAKKDVRLPDYHFVDHRIEILKHDKDYNKVKLYENAVARYSMLPSQAK | binds | –
2 | mAG, monomeric mutant of Azami-Green (V123T, Y188A, F190K) (other, also called modified monomeric fluorescent protein) MSVIKPEMKIKLCMRGTVNGHNFVIEGEGKGNPYEGTQILDLNVTEGAPLPFAYDILTTVFQYGNRAFTKYPADIQDYFKQTFPEGYHWERSMTYEDQGICTATSNISMRGDCFFYDIRFDGTNFPPNGPVMQKKTLKWEPSTEKMYVRDGVLKGDVNMALLLEGGGHYRCDFKTTYKAKKDVRLPDAHKVDHRIEILKHDKDYNKVKLYENAVARYSMLPSQAK | – | no binding
